What was measured:
Settings in all cases: protein: recombinant; tags: N-terminal His-tag (pET28a, NheI/BamHI) removed with thrombin; label: 5' TAMRA on forward strand; blunt
[1] = molecular target: T1, NifA NC-DBD (DNA binding domain without Cys pair) (Gluconacetobacter diazotrophicus, UniProt A9H5T0 530-581); test: fluorescence anisotropy; no DTT; 10 mM Tris pH 8, 60 mM NaCl, 0.2 mM MgCl2 (5 mM DTT when reducing), 900 nM probe, 0-80 µM protein, 30 min at room temperature
T1 sequence: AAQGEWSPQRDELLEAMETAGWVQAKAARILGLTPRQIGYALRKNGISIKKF

[2] = molecular target: T2, NifA 2C-DBD (DNA binding domain with upstream Cys pair) (Gluconacetobacter diazotrophicus, UniProt A9H5T0 520-581); test: fluorescence anisotropy; reduced, 5 mM DTT; 10 mM Tris pH 8, 60 mM NaCl, 0.2 mM MgCl2 (5 mM DTT when reducing), 900 nM probe, 0-80 µM protein, 30 min at room temperature
T2 sequence: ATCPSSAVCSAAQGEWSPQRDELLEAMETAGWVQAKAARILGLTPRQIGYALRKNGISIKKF

[3] = molecular target: T2, NifA 2C-DBD (DNA binding domain with …); test: fluorescence anisotropy; oxidized (disulfide), no DTT; 10 mM Tris pH 8, 60 mM NaCl, 0.2 mM MgCl2 (5 mM DTT when reducing), 900 nM probe, 0-80 µM protein, 30 min at room temperature

B1: nifH-UAS duplex, TAMRA-labeled (dsDNA)
DNA 1: CGGTTTTGTCAGGCTTCGCACAAAGCCG
DNA 2: CGGCTTTGTGCGAAGCCTGACAAAACCG
Kd [1]: 20 ± 5.6 µM
Kd [2]: 31.5 ± 8.1 µM
Kd [3]: 34.5 ± 8.4 µM

— PMC10590331, “Purification and Biochemical Characterization of the DNA Binding Domain of the Nitrogenase Transcriptional Activator NifA from Gluconacetobacter diazotrophicus”
